Like-named read-outs stand apart in the source and are kept apart here.
Molecular target: FGFR1/KLB (Homo sapiens, UniProt P11362+Q86Z14)
Test: FGFR1/KLB functional assay (PathHunter)
Assay type: cell-based
Protocol: The cells were cultured to 70-80% full in a T-75 flask. The medium was removed and washed with 5 mL of the pre-warmed PBS. PBS was removed, and 2 mL of AssayComplete cell detachment reagent was added, and then incubated in an incubator at 37° C. and 5% CO2 for 3 minutes, and the attached cells were detached. It was mixed with 6 mL of AssayComplete cell plating 0 reagent, and the mixture was transferred to a 15 mL tube, centrifuged at 1,000 rpm for 3 minutes, and then again released in 5 mL of cell plating reagent. The number of cells was counted, and the concentration was allowed to be 500,000 cells/mL. It was transferred to a reservoir, and 40 μL per well was dispensed into a white 96-well half-area cell culture plate using a multi-channel pipette (20,000 cells/well). Only 40 μL of cell plating reagent was dispensed into the blank well. The cells were incubated in an incubator at 37° C. and 5% CO2 for 24 hours to allow to be attached.
10 μL of each of rhFGF21 (5×) and test sample (5×) prepared by 4-fold serial dilution was dispensed in duplicate and cultured at room temperature for 4 hours. 10 μL of AssayComplete cell plating 0 reagent was added to the control and blank wells. After the culture was completed, the medium was removed, and 50 μL of AssayComplete cell plating 0 reagent was added. 30 μL of Detection reagent was dispensed and reacted in a state where light was blocked at room temperature for 1 hour, and then the luminescence was measured with a plate reader.
The luminescence of the sample in the plate was measured with a Synergy Neo2 instrument.
The Delta RLU (relative luminescence unit) (ΔRLU) was calculated as follows.
ΔRLU=RLUsample−RLUblank=Signal−background luminescence
In addition, the fold induction relative to the control group was calculated as follows.
The EC50 values were obtained based on fold induction values by each concentration using GraphPad Prism 8, as follows (curve-fitting of the log (agonist) vs. normalized response−variable slope equation).
In order to test the activity levels of the native FGF21 and the FGF21 analogue at the cellular level (in vitro), the FGFR1/KLB functional assay was performed in the same manner as in Test Example 2.

FGFR1/KLB, sequence (P11362 22-822): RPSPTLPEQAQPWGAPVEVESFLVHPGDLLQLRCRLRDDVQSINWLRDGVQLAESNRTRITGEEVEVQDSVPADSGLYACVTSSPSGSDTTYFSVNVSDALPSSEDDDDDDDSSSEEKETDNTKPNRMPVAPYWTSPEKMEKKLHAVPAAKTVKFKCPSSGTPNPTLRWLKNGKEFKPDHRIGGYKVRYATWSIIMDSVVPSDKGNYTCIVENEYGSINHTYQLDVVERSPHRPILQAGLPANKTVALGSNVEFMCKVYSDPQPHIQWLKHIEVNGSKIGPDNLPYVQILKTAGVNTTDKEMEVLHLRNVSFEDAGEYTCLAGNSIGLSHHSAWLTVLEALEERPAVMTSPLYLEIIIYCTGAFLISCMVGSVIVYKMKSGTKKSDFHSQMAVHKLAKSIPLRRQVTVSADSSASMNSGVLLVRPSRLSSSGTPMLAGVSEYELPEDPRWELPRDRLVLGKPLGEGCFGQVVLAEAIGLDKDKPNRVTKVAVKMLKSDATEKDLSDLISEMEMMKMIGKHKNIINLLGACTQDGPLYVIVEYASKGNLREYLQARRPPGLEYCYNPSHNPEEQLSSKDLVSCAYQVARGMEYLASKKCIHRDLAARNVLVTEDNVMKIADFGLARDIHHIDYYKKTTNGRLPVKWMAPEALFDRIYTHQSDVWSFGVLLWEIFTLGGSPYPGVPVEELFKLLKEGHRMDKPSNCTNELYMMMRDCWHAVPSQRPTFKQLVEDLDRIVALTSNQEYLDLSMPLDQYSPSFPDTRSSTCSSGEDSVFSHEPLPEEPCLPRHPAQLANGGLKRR
FGFR1/KLB, sequence (Q86Z14 whole entry): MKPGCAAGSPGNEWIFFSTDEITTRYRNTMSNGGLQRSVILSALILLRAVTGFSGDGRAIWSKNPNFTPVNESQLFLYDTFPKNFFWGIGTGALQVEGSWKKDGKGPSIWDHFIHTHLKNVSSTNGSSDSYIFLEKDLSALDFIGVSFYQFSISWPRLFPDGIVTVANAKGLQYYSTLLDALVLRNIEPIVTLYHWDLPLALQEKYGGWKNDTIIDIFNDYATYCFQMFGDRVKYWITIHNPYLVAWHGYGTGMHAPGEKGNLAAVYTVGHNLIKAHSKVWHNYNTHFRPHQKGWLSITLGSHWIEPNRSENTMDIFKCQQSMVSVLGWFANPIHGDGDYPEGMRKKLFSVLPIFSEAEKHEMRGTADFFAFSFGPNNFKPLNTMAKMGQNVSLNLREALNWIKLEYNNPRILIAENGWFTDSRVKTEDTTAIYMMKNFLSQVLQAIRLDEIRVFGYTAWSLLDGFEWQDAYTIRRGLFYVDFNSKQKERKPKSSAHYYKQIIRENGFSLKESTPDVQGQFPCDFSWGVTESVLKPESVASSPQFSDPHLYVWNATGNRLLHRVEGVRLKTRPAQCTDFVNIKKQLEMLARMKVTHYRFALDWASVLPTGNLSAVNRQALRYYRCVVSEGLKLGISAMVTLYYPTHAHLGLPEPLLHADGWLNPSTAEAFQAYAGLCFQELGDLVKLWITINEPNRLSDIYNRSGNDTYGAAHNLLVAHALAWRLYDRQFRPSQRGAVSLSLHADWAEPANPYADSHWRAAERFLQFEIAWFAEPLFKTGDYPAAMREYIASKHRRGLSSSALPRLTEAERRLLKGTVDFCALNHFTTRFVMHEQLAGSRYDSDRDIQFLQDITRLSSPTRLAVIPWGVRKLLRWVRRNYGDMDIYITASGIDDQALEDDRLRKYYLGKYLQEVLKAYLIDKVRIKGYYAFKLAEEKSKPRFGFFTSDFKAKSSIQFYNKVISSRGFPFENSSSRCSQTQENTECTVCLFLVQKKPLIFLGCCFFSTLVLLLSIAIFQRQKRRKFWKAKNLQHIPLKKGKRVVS

EC50 (Test Example 2, mean of 2 runs, read-out: EC50, Mean): 820 pM | EC50 (Test Example 2, run 1, read-out: EC50, 1): 750 pM | EC50 (Test Example 2, run 2, read-out: EC50, 2): 880 pM | EC50 (Test Example 9 screening, read-out: EC50): 1170 ± 560 pM
B1: rhFGF21: native FGF21, SEQ ID NO: 17 (protein)
chain: HPIPDSSPLLQFGGQVRQRYLYTDDAQQTEAHLEIREDGTVGGAADQSPESLLQLKALKPGVIQILGVKTSRFLCQRPDGALYGSLHFDPEACSFRELLLEDGYNVYQSEAHGLPLHLPGNKSPHRDPAPRGPARFLPLPGLPPALPEPPGILAPQPPDVGSSDPLSMVGPSQGRSPSYAS
modifications: FGF21 native

— patent publication US20240066137A1, “NOVEL PROTEIN CONJUGATE, AND USE THEREOF FOR PREVENTING OR TREATING NONALCOHOLIC STEATOHEPATITIS, OBESITY AND DIABETES” (ONEGENE BIOTECHNOLOGY INC., priority 2020, published 2024)
